Results as given in the domain aggregation screens of Martell et al. (2025).

Assay: soluble fraction after stress (log2 fold change); higher = more stays soluble; pooled small domains, quantitative proteomics
Conditions: stress: 50 degC
Outline: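 Custom libraries of small protein domains were pooled and measured in a high-throughput format, with quantitative proteomics as the read-out. Each library was stressed at 50°C. The value is the log2 fold change in the amount of each protein that stays soluble after stress, used as a measure of aggregation propensity; higher values mean more of the protein stays soluble.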

HMVIREVNDNPVSAEELRLGDRVKVLSLGQNGEIVTLPDEKGELTVQVGILKAKVNLDDIMLI
soluble fraction (log2): 0.0226

HMETINERVNSIIEREGHTVATFAKKIGVPWTTIKNIVSGRNAPSYDIMVKIINAVDWVDANYLVMG
soluble fraction (log2): -1.98

HMNDADAHASVDAALKHLEALAETTPEVRAALELVRRGPDGRVTVDSFARVAEALREISIAVGAS
soluble fraction (log2): 0.107

HMDRSVTAAELRLAAMDLLARREHGSQELEAKLSRRFHKRHYDVELLRSVIEQLTVEGLLSDERFAVS
soluble fraction (log2): -0.154

HMPPENVSVRREQIAEDKKTVYNVWVTKGNKTVLYSKVVYAWGGVYFFRDLNTSISENMYKQADAGLVN
soluble fraction (log2): 0.0555

HMLPLLAFDEKLNRLGYGGGFYDRTLASLAHKGNTITAIGIAYESQKMDKVPTGYFDRPLDGVLTPSGLIM
soluble fraction (log2): 0.0274

HMGQPAVSSRDVAEQFGKEHRNVIQSIKNLIAENSALTFMFIEDTYTAGTGKKYPMYYMNRDGFTLLA
soluble fraction (log2): 0.224

HMKSGLLNLSTRKQEKIKQALLSEFSNVSLLEAKVANIVTLAEISRGSFYTYFEDIYDAYQWLASI
soluble fraction (log2): -0.26

HMENNIRLSVPDTESGQRIDSYLAEQIPGLTRSAVQNLLAEQAVTIAGKAVKKNYKLLGGEDILVQLPEVR
soluble fraction (log2): 0.216

HMAQNILPGQKNAIKSLATSAGFSQQELDSYLSQNYGKTLNNLSQKEGASLISGLQDGSIKKP
soluble fraction (log2): 0.352

HMSIQELMNSKDLSSFKVEMLSDEDIAKYKGLLQNSGLTEAQAEQMALQRGLPSSELLKLKARLSGI
soluble fraction (log2): 0.128

HMKINVQETEVYRYLLERADRLYSMILGEERENLMERTRFFEKEVAKASLPHLPKLYDEFSIYLDRLERG
soluble fraction (log2): -0.138

HMDNREKLRQEFLENLKELQEQNDIPQQEIDRVILDYDGVAEFLEDEGALKRYGGQLVDMTAYRAGAIPS
soluble fraction (log2): -0.0987

HMREPDPELTASIKSMAESNDQSERLVALAQLSEQRAVDPEVADQILLIALLDEDPIIRGQAVYA
soluble fraction (log2): 0.264

HMSFGESLKKLSIALNSIRKLATTDAGKKDPKVADLLGQIRDTFNSYRTHLRKNYPDLYSGIKNQL
soluble fraction (log2): -0.62

HMELDFNSVYRQLNHEQKQAYQSIKSVLEQKISGSELDKKLKQAQQAFVAKFKENPNFEVPK
soluble fraction (log2): 0.31

HMSREQARRFYFDTWAKHRASQPLTDLEKIALTVMLLHPEYHSLLDKPDHYVDKDYSPEAGQTNPFLHM
soluble fraction (log2): -1.2

HMLSYDDTVVIGRNLLENAMKQKNIALEQLTDEVLARLAKELQVESVEAMYAGIGSGKRPSSFIINRLEAH
soluble fraction (log2): -0.569

HMADEEEIMVPQVVGKTYDEAKSELENAGFKVEKNEKTSDKASGTVISQSINGGAKKGTSVTLTVSKGN
soluble fraction (log2): 0.149

HMRYLMPDLVNRRYEPVRSLLEARGIRFGNVIFEPYEGLPPGIVLRQDPPAGHPLPRRRTVSLVVSGPGGR
soluble fraction (log2): -1.88

HMFELVKISENIPIRDLAETLKTTPNEIIKELMVFGVLANINQTLNFDLASKVADKLGFEVELL
soluble fraction (log2): -0.246

HMSEKIDINNSNELELKQLPLTNEQIKSLIEFRRLHGEIQNIYELKNIDFFNIEKVHELKAHIEIKKII
soluble fraction (log2): -0.427

HMLEQEDMYGYQMIETLRERSEHSFDLKAGTLYPLLHALEQKGLITARDEASAAGRPRRYYHLTDAG
soluble fraction (log2): -0.144

HMLGERIRTLRKEIGMSVTELARRVKTSPSHISEIERGEKMPSLNLLVKIAKELKTSIDYLTGLVG
soluble fraction (log2): -0.0679

HMGNGALLTLTVKERQVIQLVAEGKSNKQIARDLNVTPETIKSHMKNIFAKLKVDNRAQAAVMVQQ
soluble fraction (log2): -0.638

HMNPETLTNSSVIKMSKANLSDELITDMILNSPVKFDLSAGAIKTLESEGVTPAVLESMKNAASK
soluble fraction (log2): 0.154

HMNMENIADKIGKIYESLPEDLKLMIKYRDIDDLTYDEIAVKADLPVGTVRSRLHRAREQLLKELEKN
soluble fraction (log2): -0.143

HMPLEKGVVILDVTPSSAKVAVDGTSVETTYPLRLSAGLHQLSAEADGYDSITEYFKVETEKTTVTLDLSK
soluble fraction (log2): 0.105

HMTTQVNTVKIQLANGYEMTVLTSKTNVKEILEDNNIILENNEKVTPNIDEEISSNKTIKITDKSN
soluble fraction (log2): 0.146

HMEGLATRLRFLRQARGLSYHALARLSGVTHTALHQIEAGKNIPGLDTAEKIAMALDVDPRWFAYGRGDPS
soluble fraction (log2): -1.31

HMADGEWAEMQRQLTAAGLLVVGRAAQERIQRLSDISPLIEAAQRSNVVMLSERTVDEVLTLVPT
soluble fraction (log2): -0.18

HMAISSADRIVAELRTWISGASPGTQLPSSRTLAARYGASPVTVQKALHTLAGMGLVEARPGAGTFVRRQS
soluble fraction (log2): -0.189

HMKITININIETLSHHIKQSGVPLGRLQESVPDYNEIVTGNKSPTYQQLEKISKLIRVPLGLLVIESPL
soluble fraction (log2): 0.268

HMDAHYMEMKGKTGTAFTMLRPAGKIDIEGQIFDAVAEAGFIEKGEAIRVVKYENAQLIVRK
soluble fraction (log2): 0.11

HMGTIEEYSKYLINQYFDSLKKPMDAMTTSEKIEIVKSLDKKGIFNLKGSVGELAKRFNTSEKTIYRYLSS
soluble fraction (log2): 0.0367
